The results in this text go back to publication PMC9834221, “TLR3 forms a laterally aligned multimeric complex along double-stranded RNA for efficient signal transduction”.

Numbering of substitutions follows the chain as printed.

In one data set the target is T1, TLR3 ectodomain Mut10 (mouse, UniProt Q99MB1 26-705, S116E;Q118E;K138E;K140E;N142E;K145E;N146E).
T1 sequence: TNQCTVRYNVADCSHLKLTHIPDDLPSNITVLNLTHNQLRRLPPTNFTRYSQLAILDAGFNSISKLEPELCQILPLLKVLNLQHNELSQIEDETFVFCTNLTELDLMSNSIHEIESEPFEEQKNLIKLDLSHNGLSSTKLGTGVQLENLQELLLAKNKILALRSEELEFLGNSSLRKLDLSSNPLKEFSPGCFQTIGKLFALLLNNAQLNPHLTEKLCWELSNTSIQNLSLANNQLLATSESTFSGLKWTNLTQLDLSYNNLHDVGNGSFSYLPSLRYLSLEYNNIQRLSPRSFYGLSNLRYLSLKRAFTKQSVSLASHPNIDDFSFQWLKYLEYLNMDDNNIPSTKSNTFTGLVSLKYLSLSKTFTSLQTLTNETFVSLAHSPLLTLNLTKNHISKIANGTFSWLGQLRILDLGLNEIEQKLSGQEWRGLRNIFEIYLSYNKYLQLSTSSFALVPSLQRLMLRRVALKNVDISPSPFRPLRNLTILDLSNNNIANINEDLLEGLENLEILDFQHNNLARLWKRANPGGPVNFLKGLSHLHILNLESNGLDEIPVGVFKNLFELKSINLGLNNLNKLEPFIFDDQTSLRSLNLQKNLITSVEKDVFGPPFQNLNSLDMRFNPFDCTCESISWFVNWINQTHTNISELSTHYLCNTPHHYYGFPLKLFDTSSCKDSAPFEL
Nature of the data set: cryo-EM 3D reconstruction; dimer identical to WT; Protein in 25 mM MES-NaOH pH 5.3, 0.2-0.3 M NaCl (purification buffer); complex formation conditions not in the material. As to conditions: protein: recombinant; tags: C-terminal FLAG-His6; chain copies: 2; blunt.

A further data set deals with T2, TLR3 ectodomain WT (mouse, UniProt Q99MB1 26-705).
T2 sequence: T1 sequence with E91S, E93Q, E113K, E115K, E117N, E120K, E121N
Nature of the data set: cryo-EM structure; two TLR3 dimers laterally aligned along dsRNA; Protein in 25 mM MES-NaOH pH 5.3, 0.2-0.3 M NaCl (purification buffer); complex formation conditions not in the material. As to conditions: protein: recombinant; tags: C-terminal FLAG-His6; chain copies: 4; blunt.

B1: 46 bp dsRNA (dsRNA)
RNA 1: AUUCUGCGGAUUAUUUGGCAAAGGAAGCAUUGACACAUGCGCCAAU
RNA 2: AUUGGCGCAUGUGUCAAUGCUUCCUUUGCCAAAUAAUCCGCAGAAU
modifications: 2'-O-methyl at strand 1 positions 10-15 and 36-41 (lower case); complement modifications not stated
For the molecule B1, in the data set with TLR3 ectodomain Mut10, the binding result was “binds”.

B2: 90 bp dsRNA (dsRNA)
RNA 1: AUUCUGCGGAUUAUUUGGCAAAGGAAGCAUUGACACAUGCGCCAAUUCUGCGGAUUAUUUGGCAAAGGAAGCAUUGACACAUGCGCCAAU
RNA 2: AUUGGCGCAUGUGUCAAUGCUUCCUUUGCCAAAUAAUCCGCAGAAUUGGCGCAUGUGUCAAUGCUUCCUUUGCCAAAUAAUCCGCAGAAU
modifications: 2'-O-methyl at strand 1 positions 10-15 and 80-85 (lower case); complement modifications not stated
As for B2, the binding result with TLR3 ectodomain WT is listed as “binds”.
